{
  "source": "patent US11453711B2",
  "about": "“Fusion proteins of GLP-1 and GDF15 and conjugates thereof” (BEIJING QL BIOPHARMACEUTICAL CO., LTD., priority 2019, dated 2022)",
  "molecules": {"B1": {"name": "MLC093: fusion polypeptide SEQ ID NO: 381 conjugated with Moiety B at 33C of Linker (conjugate)", "chain": "HGEGTFTSDVSSYLEEQAAKEFIAWLVRGGGGAQPGAQPGAQPGAQPGAQPGAQPGAQPGAQPCQEPGAQPGQEPGAQPGQEPGAQPGQEPGAQPGQEPGAQPGQEPGAQPARQGDHCPLGPGRCCRLHTVRASLEDLGWADWVLSPREVQVTMCIGACPSQFRAANLHAQIKTSLHRLKPDTVPAPCCVPASYNPMVLIQKTDTGVSLQTYDDLLAKDCHCI", "modifications": "Moiety B conjugated at linker Cys33"}},
  "assay": "Stability study: SEC-HPLC (% HMW, % LMW), RP-UPLC and LC/MS after 2 weeks storage",
  "type": "physicochemical",
  "description": "To test the stability, the different conjugated fusion proteins were formulated in buffers with different compositions (pH6, 7, 7.4 and 8.0) and stored at 4° C. and 37° C. or 40° C. for 2 weeks. The % High Molecular Weight aggregate (HMW) and % Low Molecular Weight (LMW) were analyzed by size exclusion chromatography (SEC)-HPLC. The concentration and modifications were analyzed by reverse phase (RP)-UPLC and LC/MS.",
  "data": [
    {"molecule": "B1", "values": [
      {"measurement": "HMW %", "setting": "4.65 mg/mL at 4° C., Day 0", "value": 0, "unit": "%"},
      {"measurement": "LMW %", "setting": "4.65 mg/mL at 4° C., Day 0", "value": 0.43, "unit": "%"},
      {"measurement": "Main peak %", "setting": "4.65 mg/mL at 4° C., Day 0", "value": 99.56, "unit": "%"},
      {"measurement": "HMW %", "setting": "4.65 mg/mL at 4° C., Day 7", "value": 0, "unit": "%"},
      {"measurement": "LMW %", "setting": "4.65 mg/mL at 4° C., Day 7", "value": 0.51, "unit": "%"},
      {"measurement": "Main peak %", "setting": "4.65 mg/mL at 4° C., Day 7", "value": 99.46, "unit": "%"},
      {"measurement": "HMW %", "setting": "4.65 mg/mL at 4° C., Day 14", "value": 0, "unit": "%"},
      {"measurement": "LMW %", "setting": "4.65 mg/mL at 4° C., Day 14", "value": 0.39, "unit": "%"},
      {"measurement": "Main peak %", "setting": "4.65 mg/mL at 4° C., Day 14", "value": 99.6, "unit": "%"},
      {"measurement": "HMW %", "setting": "4.65 mg/mL at 37° C., Day 0", "value": 0, "unit": "%"},
      {"measurement": "LMW %", "setting": "4.65 mg/mL at 37° C., Day 0", "value": 0.43, "unit": "%"},
      {"measurement": "Main peak %", "setting": "4.65 mg/mL at 37° C., Day 0", "value": 99.56, "unit": "%"},
      {"measurement": "HMW %", "setting": "4.65 mg/mL at 37° C., Day 7", "value": 0.53, "unit": "%"},
      {"measurement": "LMW %", "setting": "4.65 mg/mL at 37° C., Day 7", "value": 0.56, "unit": "%"},
      {"measurement": "Main peak %", "setting": "4.65 mg/mL at 37° C., Day 7", "value": 98.86, "unit": "%"},
      {"measurement": "HMW %", "setting": "4.65 mg/mL at 37° C., Day 14", "value": 0.8, "unit": "%"},
      {"measurement": "LMW %", "setting": "4.65 mg/mL at 37° C., Day 14", "value": 0.53, "unit": "%"},
      {"measurement": "Main peak %", "setting": "4.65 mg/mL at 37° C., Day 14", "value": 98.6, "unit": "%"},
      {"measurement": "HMW %", "setting": "20 mg/mL at 4° C., Day 0", "value": 0, "unit": "%"},
      {"measurement": "LMW %", "setting": "20 mg/mL at 4° C., Day 0", "value": 0.38, "unit": "%"},
      {"measurement": "Main peak %", "setting": "20 mg/mL at 4° C., Day 0", "value": 99.6, "unit": "%"},
      {"measurement": "HMW %", "setting": "20 mg/mL at 4° C., Day 7", "value": 0, "unit": "%"},
      {"measurement": "LMW %", "setting": "20 mg/mL at 4° C., Day 7", "value": 0.49, "unit": "%"},
      {"measurement": "Main peak %", "setting": "20 mg/mL at 4° C., Day 7", "value": 99.49, "unit": "%"},
      {"measurement": "HMW %", "setting": "20 mg/mL at 4° C., Day 14", "value": 0, "unit": "%"},
      {"measurement": "LMW %", "setting": "20 mg/mL at 4° C., Day 14", "value": 0.44, "unit": "%"},
      {"measurement": "Main peak %", "setting": "20 mg/mL at 4° C., Day 14", "value": 99.24, "unit": "%"},
      {"measurement": "HMW %", "setting": "20 mg/mL at 37° C., Day 0", "value": 0, "unit": "%"},
      {"measurement": "LMW %", "setting": "20 mg/mL at 37° C., Day 0", "value": 0.38, "unit": "%"},
      {"measurement": "Main peak %", "setting": "20 mg/mL at 37° C., Day 0", "value": 99.6, "unit": "%"},
      {"measurement": "HMW %", "setting": "20 mg/mL at 37° C., Day 7", "value": 1.03, "unit": "%"},
      {"measurement": "LMW %", "setting": "20 mg/mL at 37° C., Day 7", "value": 0.53, "unit": "%"},
      {"measurement": "Main peak %", "setting": "20 mg/mL at 37° C., Day 7", "value": 98.38, "unit": "%"},
      {"measurement": "HMW %", "setting": "20 mg/mL at 37° C., Day 14", "value": 1.81, "unit": "%"},
      {"measurement": "LMW %", "setting": "20 mg/mL at 37° C., Day 14", "value": 0.55, "unit": "%"},
      {"measurement": "Main peak %", "setting": "20 mg/mL at 37° C., Day 14", "value": 97.64, "unit": "%"},
      {"measurement": "HMW %", "setting": "20 mg/mL at 40° C., Day 0", "value": 0.56, "unit": "%"},
      {"measurement": "LMW %", "setting": "20 mg/mL at 40° C., Day 0", "value": 0.54, "unit": "%"},
      {"measurement": "Main peak %", "setting": "20 mg/mL at 40° C., Day 0", "value": 98.83, "unit": "%"},
      {"measurement": "HMW %", "setting": "20 mg/mL at 40° C., Day 14", "value": 2.26, "unit": "%"},
      {"measurement": "LMW %", "setting": "20 mg/mL at 40° C., Day 14", "value": 0.84, "unit": "%"},
      {"measurement": "Main peak %", "setting": "20 mg/mL at 40° C., Day 14", "value": 96.76, "unit": "%"},
      {"measurement": "physical and chemical stability", "setting": "4° C., 37° C. and 40° C., 2 weeks", "value": "high physical and chemical stability"}
    ]}
  ]
}
